For 1 molecule, Kd results are on record in publication PMC11733250.

For this experiment, the target named is T1, FKBP51, Q13451.
T1 chain: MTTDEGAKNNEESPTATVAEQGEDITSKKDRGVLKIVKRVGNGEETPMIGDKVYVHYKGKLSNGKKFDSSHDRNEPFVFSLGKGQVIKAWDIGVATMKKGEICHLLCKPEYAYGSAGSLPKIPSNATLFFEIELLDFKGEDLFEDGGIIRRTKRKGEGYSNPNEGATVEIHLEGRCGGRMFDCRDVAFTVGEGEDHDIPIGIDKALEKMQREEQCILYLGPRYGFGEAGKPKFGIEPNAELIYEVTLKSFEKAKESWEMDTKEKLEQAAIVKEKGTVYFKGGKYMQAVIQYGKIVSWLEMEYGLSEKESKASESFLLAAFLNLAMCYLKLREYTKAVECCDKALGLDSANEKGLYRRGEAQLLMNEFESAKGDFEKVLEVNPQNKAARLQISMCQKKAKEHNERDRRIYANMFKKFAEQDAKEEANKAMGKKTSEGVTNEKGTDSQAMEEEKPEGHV
Nature of the experiment: ITC; 50 µM FKBP51 in the cell titrated with 750 µM p23; 25 °C; 25 mM HEPES, 10 mM KCl, 5 mM MgCl2, 1 mM DTT, pH 7.2; one set of binding sites. Conditions: remark: other sources report otherwise. For orientation: ITC needs no label: the signal is the heat of the interaction.

B1: p23 wild-type (human co-chaperone p23, 160 amino acids), Q15185 1-160 (natural protein)
chain: MQPASAKWYDRRDYVFIEFCVEDSKDVNVNFEKSKLTFSCLGGSDNFKHLNEIDLFHCIDPNDSKHKRTDRSILCCLRKGESGQSWPRLTKERAKLNWLSVDFNNWKDWEDDSDEDMSNFDRFSEMMNNMGGDEDVDLPEVDGADDDSQDSDDEKMPDLE
In general, Kd refers to the free concentration of one partner at which half of the binding sites on the other are occupied at equilibrium, for simple one-to-one binding. For the molecule B1, the Kd was 67 µM.
